The target in assay [1] is T1, HLA-A*0201 (human).
T1 construct: also called HLA-A2.1
Nature of the assay: inhibition of 125I-labelled standard peptide binding to purified HLA, gel filtration; ratio = IC50 of standard / IC50 of test peptide.

The target of assay [2] is HLA-B*0702 (human). Nature of the assay: competition with 125I probe peptide, purified HLA.
Assay [3] has as its target HLA-B*5101 (human). Nature of the assay: competition with 125I probe peptide, purified HLA.
Assay [4] deals with HLA-B*5301 (human). Nature of the assay: competition with 125I probe peptide, purified HLA.
Assay [5] has as its target HLA-B*5401 (human). Description: competition with 125I probe peptide, purified HLA.
Assay [6] deals with T2, HLA-A*0201 (human).
T2 construct: also called HLA-A2.1
Description: competition with 125I-labelled standard peptide 941.01 for purified HLA, gel filtration.

For assay [7], the target named is HLA-B*0702 (human). Description: competition vs 125I-labelled probe peptide, purified HLA, gel filtration.
In assay [8] the target is HLA-B*5101 (human). The assay is described as above.
The target in assay [9] is HLA-B*5301 (human). Described as above.
For assay [10], the target named is HLA-B*5401 (human). The description is as above.
The target of assay [11] is T3, HLA-A*0201 (human).
T3 construct: also called HLA-A2.1
Description: competitive inhibition of 125I-labelled standard peptide binding to purified HLA, gel filtration. For orientation: In gel filtration, larger molecules generally elute earlier.

Take TIDVYMIMV [HER2/neu peptide, position 948, 9 amino acids]: the relative binding ratio with HLA-A*0201 [1] is 0.0005 ratio to standard peptide.

For the molecule CPLHNQEVTI (analog peptide) [Her2/neu.315.I10], the IC50 (commonly the midpoint of a concentration-inhibition curve) with HLA-B*0702 [2] is 458 nM; with HLA-B*5101 [3] it was 42 nM; in the assay with HLA-B*5301 [4], 274 nM; with HLA-B*5401 [5], 556 nM.

Regarding AVLDNGDPL (also called Her2/neu.115 (9-mer)) [HER2/neu peptide, position 115, 9 amino acids], the relative binding ratio with HLA-A*0201 [6] was 0.0004 ratio (IC50 of standard peptide / IC50 of test peptide).

B1: Her2/neu.1151.F1I9 (peptide)
peptide: FPREGPLPI
notes: 9-mer analog of the HER2/neu peptide starting at position 1151
B1: the IC50 with HLA-B*0702 [7] turned out to be 0.3 nM; with HLA-B*5101 [8], 14 nM; with HLA-B*5301 [9], 2820 nM; with HLA-B*5401 [10] it was 4 nM.

PAARPAGATL (Synthetic peptide) [HER2/neu A02 supermotif peptide, position 1158, 10 amino acids]: in the assay with HLA-A*0201 [11], the “relative binding ratio (IC50 of standard peptide / IC50 of test peptide)” value was determined as 0.0001 ratio.

On to DIQEVQGYV (also called Her2/neu.76 (9-mer)) [HER2/neu peptide, position 76, 9 amino acids], for which the relative binding ratio with HLA-A*0201 [6] was 0.0001 ratio (IC50 of standard peptide / IC50 of test peptide).

Consider NVLVKSPNHV (Synthetic peptide) [HER2/neu A02 supermotif peptide, position 850, 10 amino acids], for which the “relative binding ratio (IC50 of standard peptide / IC50 of test peptide)” value in the assay with HLA-A*0201 [11] is 0.0001 ratio.

As to CVTACPYNYL (also called Her2/neu.295 (10-mer)) [HER2/neu peptide, position 295, 10 amino acids], in the assay with HLA-A*0201 [6], the relative binding ratio was 0.0001 ratio (IC50 of standard peptide / IC50 of test peptide).

Turning to MAGVGSPYV (Synthetic peptide) [HER2/neu A02 supermotif peptide, position 774, 9 amino acids], the “relative binding ratio (IC50 of standard peptide / IC50 of test peptide)” value with HLA-A*0201 [11] is 0.0014 ratio.

Turning to LVDAEEYLV (Synthetic peptide) [HER2/neu A02 supermotif peptide, position 1017, 9 amino acids], in the assay with HLA-A*0201 [11], the “relative binding ratio (IC50 of standard peptide / IC50 of test peptide)” value is 0.003 ratio.

With LVSEFSRMA (Synthetic peptide) [HER2/neu A02 supermotif peptide, position 972, 9 amino acids], in the assay with HLA-A*0201 [11], the “relative binding ratio (IC50 of standard peptide / IC50 of test peptide)” value came to 0.0001 ratio.

Regarding DLGMGAAKGL (also called Her2/neu.1089 (10-mer)) [HER2/neu peptide, position 1089, 10 amino acids], the relative binding ratio with HLA-A*0201 [6] is 0.0001 ratio (IC50 of standard peptide / IC50 of test peptide).

As to DIFHKNNQL (also called Her2/neu.171 (9-mer)) [HER2/neu peptide, position 171, 9 amino acids], in the assay with HLA-A*0201 [6], the relative binding ratio is 0.0002 ratio (IC50 of standard peptide / IC50 of test peptide).

In the case of PAFSPAFDNL (Synthetic peptide) [HER2/neu A02 supermotif peptide, position 1211, 10 amino acids], the “relative binding ratio (IC50 of standard peptide / IC50 of test peptide)” value with HLA-A*0201 [11] was 0.0001 ratio.

Take SLRELGSGL [HER2/neu peptide, position 457, 9 amino acids]: the relative binding ratio in the assay with HLA-A*0201 [1] is 0.0002 ratio to standard peptide.

As for SVFQNLQVI [HER2/neu peptide, position 423, 9 amino acids], the relative binding ratio with HLA-A*0201 [1] was 0.0017 ratio to standard peptide.

In the case of CARVCYGLGM (also called Her2/neu.338 (10-mer)) [HER2/neu peptide, position 338, 10 amino acids], in the assay with HLA-A*0201 [6], the relative binding ratio is 0.0011 ratio (IC50 of standard peptide / IC50 of test peptide).

Take TAPLQPEQL [HER2/neu peptide, position 389, 9 amino acids]: the relative binding ratio with HLA-A*0201 [1] is 0.0002 ratio to standard peptide.

On to SIISAVVGIL [HER2/neu peptide, position 653, 10 amino acids], for which, in the assay with HLA-A*0201 [1], the relative binding ratio was 0.0002 ratio to standard peptide.

On to NASLSFLQDI (Synthetic peptide) [HER2/neu A02 supermotif peptide, position 68, 10 amino acids], for which the “relative binding ratio (IC50 of standard peptide / IC50 of test peptide)” value in the assay with HLA-A*0201 [11] was 0.0001 ratio.

Turning to RMARDPQRFV [HER2/neu peptide, position 978, 10 amino acids], the relative binding ratio in the assay with HLA-A*0201 [1] was 0.002 ratio to standard peptide.

As for PAEQRASPL (Synthetic peptide) [HER2/neu A02 supermotif peptide, position 643, 9 amino acids], the “relative binding ratio (IC50 of standard peptide / IC50 of test peptide)” value with HLA-A*0201 [11] is 0.0001 ratio.

Regarding SLPTHDPSPL [HER2/neu peptide, position 1100, 10 amino acids], the relative binding ratio with HLA-A*0201 [1] is 0.0059 ratio to standard peptide.

DIQEVQGYVL (also called Her2/neu.76 (10-mer)) [HER2/neu peptide, position 76, 10 amino acids]: the relative binding ratio with HLA-A*0201 [6] was 0.0001 ratio (IC50 of standard peptide / IC50 of test peptide).

On to STDVGSCTLV [HER2/neu peptide, position 305, 10 amino acids], for which the relative binding ratio with HLA-A*0201 [1] was 0.0001 ratio to standard peptide.

As for DLLEKGERL (also called Her2/neu.933 (9-mer)) [HER2/neu peptide, position 933, 9 amino acids], the relative binding ratio in the assay with HLA-A*0201 [6] was 0.0002 ratio (IC50 of standard peptide / IC50 of test peptide).

As for NLQVIRGRIL (Synthetic peptide) [HER2/neu A02 supermotif peptide, position 427, 10 amino acids], in the assay with HLA-A*0201 [11], the “relative binding ratio (IC50 of standard peptide / IC50 of test peptide)” value amounted to 0.0001 ratio.

As for AARPAGATL (also called Her2/neu.1159 (9-mer)) [HER2/neu peptide, position 1159, 9 amino acids], in the assay with HLA-A*0201 [6], the relative binding ratio was 0.0001 ratio (IC50 of standard peptide / IC50 of test peptide).

As for SAVVGILLVV [HER2/neu peptide, position 656, 10 amino acids], the relative binding ratio with HLA-A*0201 [1] is 0.0009 ratio to standard peptide.

B2: Her2/neu.1157.F1I9 (peptide)
peptide: FPAARPAGI
notes: 9-mer analog of the HER2/neu peptide starting at position 1157
Take B2: the IC50 with HLA-B*0702 [7] worked out at 9.3 nM; with HLA-B*5101 [8], 131 nM; in the assay with HLA-B*5301 [9] it was 4230 nM; with HLA-B*5401 [10], 48 nM.

In the case of RLPQPPICT [HER2/neu peptide, position 940, 9 amino acids], the relative binding ratio with HLA-A*0201 [1] is 0.0002 ratio to standard peptide.

On to AALCRWGLLL (also called Her2/neu.4 (10-mer)) [HER2/neu peptide, position 4, 10 amino acids], for which the relative binding ratio with HLA-A*0201 [6] was 0.001 ratio (IC50 of standard peptide / IC50 of test peptide).

Take FPMCKGSRCI (analog peptide) [Her2/neu.196.F1]: the IC50 turned out to be 183 nM with HLA-B*0702 [2], 500 nM with HLA-B*5101 [3], 6640 nM with HLA-B*5301 [4] and 303 nM with HLA-B*5401 [5].

In the case of MARDPQRFV (Synthetic peptide) [HER2/neu A02 supermotif peptide, position 979, 9 amino acids], in the assay with HLA-A*0201 [11], the “relative binding ratio (IC50 of standard peptide / IC50 of test peptide)” value is 0.0001 ratio.

Turning to LVCPLHNQEV (Synthetic peptide) [HER2/neu A02 supermotif peptide, position 313, 10 amino acids], the “relative binding ratio (IC50 of standard peptide / IC50 of test peptide)” value with HLA-A*0201 [11] was 0.0002 ratio.

As for ALLPPGAAST (also called Her2/neu.14 (10-mer)) [HER2/neu peptide, position 14, 10 amino acids], in the assay with HLA-A*0201 [6], the relative binding ratio was 0.0001 ratio (IC50 of standard peptide / IC50 of test peptide).

B3: Her2/neu.995.F1I10 (peptide)
peptide: FPASPLDSTI
notes: 10-mer analog of the HER2/neu peptide starting at position 995
Take B3: the IC50 was 20 nM with HLA-B*0702 [7], 20 nM in the assay with HLA-B*5101 [8], 30 nM with HLA-B*5301 [9] and 14 nM in the assay with HLA-B*5401 [10].

Take DLAARNVLV (also called Her2/neu.845 (9-mer)) [HER2/neu peptide, position 845, 9 amino acids]: in the assay with HLA-A*0201 [6], the relative binding ratio is 0.0002 ratio (IC50 of standard peptide / IC50 of test peptide).

For the molecule NVKIPVAIKV (Synthetic peptide) [HER2/neu A02 supermotif peptide, position 745, 10 amino acids], the “relative binding ratio (IC50 of standard peptide / IC50 of test peptide)” value with HLA-A*0201 [11] was 0.0001 ratio.

Regarding LVSEFSRM (Synthetic peptide) [HER2/neu A02 supermotif peptide, position 972, 8 amino acids], the “relative binding ratio (IC50 of standard peptide / IC50 of test peptide)” value in the assay with HLA-A*0201 [11] stood at 0.0001 ratio.

Take AMPNQAQMRI (also called Her2/neu.705 (10-mer)) [HER2/neu peptide, position 705, 10 amino acids]: in the assay with HLA-A*0201 [6], the relative binding ratio is 0.0007 ratio (IC50 of standard peptide / IC50 of test peptide).

With PASPETHLDM (Synthetic peptide) [HER2/neu A02 supermotif peptide, position 36, 10 amino acids], the “relative binding ratio (IC50 of standard peptide / IC50 of test peptide)” value with HLA-A*0201 [11] was 0.0001 ratio.

Take PAREIPDLL (Synthetic peptide) [HER2/neu A02 supermotif peptide, position 927, 9 amino acids]: the “relative binding ratio (IC50 of standard peptide / IC50 of test peptide)” value with HLA-A*0201 [11] was 0.0001 ratio.

In the case of RLVHRDLAA [HER2/neu peptide, position 840, 9 amino acids], the relative binding ratio with HLA-A*0201 [1] was 0.0001 ratio to standard peptide.

B4: Her2/neu.1149.F1I11 (peptide)
peptide: FPSPREGPLPI
notes: 11-mer analog of the HER2/neu peptide starting at position 1149
On to B4, for which the IC50 with HLA-B*0702 [7] was found to be 190 nM; with HLA-B*5101 [8], 262 nM; with HLA-B*5301 [9], 5170 nM; with HLA-B*5401 [10], 263 nM.

B5: HER2/neu peptide, position 413, 10 amino acids (peptide)
peptide: SAWPDSLPDL
notes: T0022 prints L there and the analog Her2/neu.415.I8 implies a native L, so L is used
As for B5, the relative binding ratio with HLA-A*0201 [1] was 0.0002 ratio to standard peptide.

Turning to TAENPEYLGL [HER2/neu peptide, position 1242, 10 amino acids], the relative binding ratio in the assay with HLA-A*0201 [1] is 0.0001 ratio to standard peptide.

Consider RLRIVRGTQL [HER2/neu peptide, position 98, 10 amino acids], for which, in the assay with HLA-A*0201 [1], the relative binding ratio was 0.0001 ratio to standard peptide.

Turning to FPGGLRELQI (analog peptide) [Her2/neu.133.F1I10], the IC50 amounted to 306 nM in the assay with HLA-B*0702 [2], 1770 nM with HLA-B*5101 [3], 310 nM with HLA-B*5301 [4] and 476 nM with HLA-B*5401 [5].

As to CVARCPSGV (also called Her2/neu.596 (9-mer)) [HER2/neu peptide, position 596, 9 amino acids], the relative binding ratio in the assay with HLA-A*0201 [6] is 0.0004 ratio (IC50 of standard peptide / IC50 of test peptide).

On to RLPASPETHL [HER2/neu peptide, position 34, 10 amino acids], for which the relative binding ratio with HLA-A*0201 [1] is 0.0001 ratio to standard peptide.

For ALVTYNTDT (also called Her2/neu.270 (9-mer)) [HER2/neu peptide, position 270, 9 amino acids], the relative binding ratio with HLA-A*0201 [6] is 0.0001 ratio (IC50 of standard peptide / IC50 of test peptide).

For the molecule RASPLTSII [HER2/neu peptide, position 647, 9 amino acids], the relative binding ratio in the assay with HLA-A*0201 [1] is 0.0002 ratio to standard peptide.

As for MIMVKCWMI (Synthetic peptide) [HER2/neu A02 supermotif peptide, position 953, 9 amino acids], the “relative binding ratio (IC50 of standard peptide / IC50 of test peptide)” value with HLA-A*0201 [11] was found to be 0.0051 ratio.
